The text below walks through data of doi:10.1101/2022.03.30.486445 (bioRxiv, 2022).

In assay [1] the target is GMPCPP-stabilized HyLite 647/biotin-labeled microtubules (bovine) (UniProt Q6B856). The assay can be described thus: single-molecule TIRF microscopy.
Another assay addresses T1, His6-EB1-CyPet (human, UniProt Q15691 1-268).
T1 sequence: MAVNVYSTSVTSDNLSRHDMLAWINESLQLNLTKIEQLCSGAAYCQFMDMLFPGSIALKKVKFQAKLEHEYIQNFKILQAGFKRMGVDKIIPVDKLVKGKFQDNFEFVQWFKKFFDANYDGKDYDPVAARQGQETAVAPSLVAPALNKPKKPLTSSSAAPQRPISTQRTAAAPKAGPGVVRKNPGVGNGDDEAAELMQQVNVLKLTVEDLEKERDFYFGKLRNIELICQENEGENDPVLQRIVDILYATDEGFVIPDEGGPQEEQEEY
Kind of assay: FRET or BRET.

Assay [2] concerns the target doubly stabilized microtubules (GMPCPP and paclitaxel) (UniProt Q6B856 1-445). The assay can be described thus: co-sedimentation.

B1: GFP-Kif18B (full-length human Kif18B N-terminally tagged with EGFP) (natural protein)
chain: MAVEDSTLQVVVRVRPPTPRELDSQRRPVVQVVDERVLVFNPEEPDGGFPGLKWGGTHDGPKKKGKDLTFVFDRVFGEAATQQDVFQHTTHSVLDSFLQGYNCSVFAYGATGAGKTHTMLGREGDPGIMYLTTVELYRRLEARQQEKHFEVLISYQEVYNEQIHDLLEPKGPLAIREDPDKGVVVQGLSFHQPASAEQLLEILTRGNRNRTQHPTDANATSSRSHAIFQIFVKQQDRVPGLTQAVQVAKMSLIDLAGSERASSTHAKGERLREGANINRSLLALINVLNALADAKGRKTHVPYRDSKLTRLLKDSLGGNCRTVMIAAISPSSLTYEDTYNTLKYADRAKEIRLSLKSNVTSLDCHISQYATICQQLQAEVAALRKKLQVYEGGGQPPPQDLPGSPKSGPPPEHLPSSPLPPHPPSQPCTPELPAGPRALQEESLGMEAQVERAMEGNSSDQEQSPEDEDEGPAEEVPTQMPEQNPTHALPESPRLTLQPKPVVGHFSARELDGDRSKQLALKVLCVAQRQYSLLQAANLLTPDMITEFETLQQLVQEEKIEPGAEALRTSGLARGAPLAQELCSESIPVPSPLCPEPPGYTGPVTRTMARRLSGPLHTLGIPPGPNCTPAQGSRWPMEKKRRRPSALEADSPMAPKRGTKRQRQSFLPCLRRGSLPDTQPSQGPSTPKGERASSPCHSPRVCPATVIKSRVPLGPSAMQNCSTPLALPTRDLNATFDLSEEPPSKPSFHECIGWDKIPQELSRLDQPFIPRAPVPLFTMKGPKPTSSLPGTSACKKKRVASSSVSHGRSRIARLPSSTLKRPAGPLVLPGDWH
Turning to B1, in assay [1], the dwell time at MT plus ends is 5.56 s; the dwell time at MT plus ends, with importin α/β was determined as 5.39 s; the dwell time on the MT lattice was 1.77 s; the dwell time on the MT lattice, with importin α/β came to 2.3 s. Moreover, in assay [1], the on-rate on MTs (landing events per MT length and time) was determined as 0.26 µm·s^-1; the on-rate on MTs (landing events per MT length and time), with importin α/β was found to be 0.35 µm·s^-1.

B2: YPet-Kif18B(605-707)-His6 (domain or fragment)
chain: TRTMARRLSGPLHTLGIPPGPNCTPAQGSRWPMEKKRRRPSALEADSPMAPKRGTKRQRQSFLPCLRRGSLPDTQPSQGPSTPKGERASSPCHSPRVCPATVI
As to B2, in the assay with His6-EB1-CyPet, the binding result is given as “binds”.

B3: YPet-Kif18B(708-828)-His6 (domain or fragment)
chain: KSRVPLGPSAMQNCSTPLALPTRDLNATFDLSEEPPSKPSFHECIGWDKIPQELSRLDQPFIPRAPVPLFTMKGPKPTSSLPGTSACKKKRVASSSVSHGRSRIARLPSSTLKRPAGPLVL
For B3, the binding result in the assay with His6-EB1-CyPet was “binds”.

B4: YPet-Kif18B(708-828) E2 (domain or fragment)
chain: KSRVPLGPSAMQNCSTPLALPTRDLNATFDLSEEPPSKPSFHECIGWDKIPQELSRLDQPFIPRAPVPLFTMKGPKPTSSNNGTSACKKKRVASSSVSHGRSRIARLPSSTLKRPAGPLVL
For B4, the binding result in the assay with His6-EB1-CyPet is on record as “binds”.

B5: YPet-Kif18B(605-828)-His6 (domain or fragment)
chain: TRTMARRLSGPLHTLGIPPGPNCTPAQGSRWPMEKKRRRPSALEADSPMAPKRGTKRQRQSFLPCLRRGSLPDTQPSQGPSTPKGERASSPCHSPRVCPATVIKSRVPLGPSAMQNCSTPLALPTRDLNATFDLSEEPPSKPSFHECIGWDKIPQELSRLDQPFIPRAPVPLFTMKGPKPTSSLPGTSACKKKRVASSSVSHGRSRIARLPSSTLKRPAGPLVL
As for B5, the “fold increase in the Kd for MTs with importin α/β against without” value in assay [2] is 9 fold. In addition, the binding result in the assay with His6-EB1-CyPet is “binds”.

B6: YPet-Kif18B(605-828)-NLS1/2 (domain or fragment)
chain: TRTMARRLSGPLHTLGIPPGPNCTPAQGSRWPMEAAARRPSALEADSPMAPAAGTKRQRQSFLPCLRRGSLPDTQPSQGPSTPKGERASSPCHSPRVCPATVIKSRVPLGPSAMQNCSTPLALPTRDLNATFDLSEEPPSKPSFHECIGWDKIPQELSRLDQPFIPRAPVPLFTMKGPKPTSSLPGTSACAAAAVASSSVSHGRSRIARLPSSTLKRPAGPLVL
As to B6, the “fold increase in the Kd for MT binding relative to YPet-Kif18B(605-828)” value in assay [2] was roughly 2 fold. Moreover, in the assay with His6-EB1-CyPet, the binding result is “binds”.
